According to patent US20200317768A1 (published 2020):
Changes are numbered by the printed parent chain. Blank lines part the entries; values can stand above or below the binder they belong to.

Tests used:
[1] = molecular target: T1, soluble mouse FcγRII, His-tagged (mouse, UniProt P08101 30-210, limits assumed); assay: SPR, mouse FcgRII-His captured, antigen-antibody complex injected, pH7.4, 25C
T1 construct: Captured on the chip by an anti-His antibody
T1 sequence (looked up): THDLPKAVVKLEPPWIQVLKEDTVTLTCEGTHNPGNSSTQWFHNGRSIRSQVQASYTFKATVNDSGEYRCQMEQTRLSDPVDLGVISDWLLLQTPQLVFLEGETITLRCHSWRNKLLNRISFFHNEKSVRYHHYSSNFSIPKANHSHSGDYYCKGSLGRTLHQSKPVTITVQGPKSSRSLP
Method: Regarding the produced Fc region variant-containing antibodies, binding assays between soluble mouse FcγRII and antigen-antibody complexes were performed using BIACORE® T200 (GE Healthcare). Soluble mouse FcγRII was produced in the form of a His-tagged molecule by a method known to those skilled in the art. An appropriate amount of an anti-His antibody was fixed onto Sensor chip CM5 (GE Healthcare) by the amine coupling method using a His capture kit (GE Healthcare) to capture mouse FcγRII. Next, an antibody-antigen complex and a running buffer (as a reference solution) were injected, and interaction was allowed to take place with the mouse FcγRII captured onto the sensor chip. 20 mM N-(2-Acetamido)-2-aminoethanesulfonic acid, 150 mM NaCl, 1.2 mM CaCl₂, and 0.05% (w/v) TWEEN, 20 at pH7.4 was used as the running buffer, and the respective buffer was also used to dilute the soluble mouse FcγRII. To regenerate the sensor chip, 10 mM glycine-HCl at pH1.5 was used. All measurements were carried out at 25° C. […] To calculate the parameters, the BIACORE® T100 Evaluation Software (GE Healthcare) was used.

[2] = molecular target: T2, Cynomolgus monkey latent myostatin (cynomolgus monkey, UniProt Q95J86 25-266; Q95J86 267-375); assay: SPR (BIACORE T200) 37C, pH 7.4, antibody captured by ProA/G
T2 construct: Latent form = complex of two propeptides and the mature dimer; also called Cyno latent myostatin
T2 sequence 1: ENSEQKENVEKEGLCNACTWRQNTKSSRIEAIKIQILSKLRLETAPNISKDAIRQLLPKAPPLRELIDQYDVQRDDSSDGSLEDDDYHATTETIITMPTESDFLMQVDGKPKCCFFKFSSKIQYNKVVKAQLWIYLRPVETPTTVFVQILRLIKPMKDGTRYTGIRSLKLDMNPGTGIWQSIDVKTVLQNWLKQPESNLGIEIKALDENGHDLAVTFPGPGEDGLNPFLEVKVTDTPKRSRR
T2 sequence 2: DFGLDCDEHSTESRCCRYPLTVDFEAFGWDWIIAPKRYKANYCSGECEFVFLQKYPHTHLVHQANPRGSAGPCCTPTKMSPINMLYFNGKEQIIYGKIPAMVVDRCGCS

Human latent myostatin = molecular target: T3, Human latent myostatin (human, UniProt O14793 25-266; O14793 267-375); assay: as above
T3 construct: also called human myostatin latent form
T3 sequence 1: T2 sequence 1 with A52V
T3 sequence 2: T2 sequence 2

Mouse latent myostatin = molecular target: T4, Mouse latent myostatin (mouse, UniProt O08689 26-267; O08689 268-376); assay: as above
T4 construct: Latent form = complex of two propeptides and the mature dimer
T4 sequence 1: T2 sequence 1 with N2G, Q5R, K6E, T19A, K25R, S26Y, K59R, V107A, E140K, N173S
T4 sequence 2: T2 sequence 2

biacore IC binding [1]: 1 relative to SG1 (=1.00)
B1: MS1032LO06-SG1 (M103205H795-SG1/M103202L889-SK1) (antibody, human IgG1, kappa)
heavy: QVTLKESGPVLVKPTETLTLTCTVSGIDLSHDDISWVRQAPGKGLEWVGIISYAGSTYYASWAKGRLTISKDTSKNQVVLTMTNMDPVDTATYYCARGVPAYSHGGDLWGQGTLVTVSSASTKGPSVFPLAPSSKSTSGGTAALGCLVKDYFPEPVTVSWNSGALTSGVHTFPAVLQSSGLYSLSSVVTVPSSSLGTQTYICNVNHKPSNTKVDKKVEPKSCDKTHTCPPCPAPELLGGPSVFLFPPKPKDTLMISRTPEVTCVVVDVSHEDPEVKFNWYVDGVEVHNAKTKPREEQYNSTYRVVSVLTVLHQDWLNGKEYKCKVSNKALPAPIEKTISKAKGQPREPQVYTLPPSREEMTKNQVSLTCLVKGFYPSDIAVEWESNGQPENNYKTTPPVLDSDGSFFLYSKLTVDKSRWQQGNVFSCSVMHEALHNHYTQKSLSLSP
light: DIVMTQSPATLSLSPGERATLSCTSSQSVYHANWLSWFQQKPGQPPKLLIYWASTLAYGVPSRFSGSGSGTDFTLTISSLQPEDAATYYCAGGYGGGRYAFGQGTKVEIKRTVAAPSVFIFPPSDEQLKSGTASVVCLLNNFYPREAKVQWKVDNALQSGNSQESVTEQDSKDSTYSLSSTLTLSKADYEKHKVYACEVTHQGLSSPVTKSFNRGEC
notes: Anti-latent myostatin antibody

Kd [2]: 343 pM | Kd (Human latent myostatin): 285 pM | Kd (Mouse latent myostatin): 299 pM
B2: MS_M103205H795-SG1/M103202L889-SK1 (antibody, human IgG1, kappa)
heavy: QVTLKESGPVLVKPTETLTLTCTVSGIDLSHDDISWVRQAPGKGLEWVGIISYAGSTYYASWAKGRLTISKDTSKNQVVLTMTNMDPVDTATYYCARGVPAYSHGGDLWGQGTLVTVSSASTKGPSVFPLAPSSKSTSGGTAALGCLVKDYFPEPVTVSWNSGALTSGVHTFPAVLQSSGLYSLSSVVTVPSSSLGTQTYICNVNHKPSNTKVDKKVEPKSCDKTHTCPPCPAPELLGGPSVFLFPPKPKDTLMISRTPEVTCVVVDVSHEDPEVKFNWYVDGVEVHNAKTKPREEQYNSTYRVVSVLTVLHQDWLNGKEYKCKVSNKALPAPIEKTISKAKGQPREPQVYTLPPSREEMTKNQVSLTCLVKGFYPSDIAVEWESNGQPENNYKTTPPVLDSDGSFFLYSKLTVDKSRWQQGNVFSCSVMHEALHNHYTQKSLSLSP
light: B1 light
notes: also called MS1032LO06-SG1
